Experimental data: patent US20190225669A1 (ACCELERON PHARMA, published 2019)
Where two headings read alike, the source gives them in different places. Each block holds one binder with its values, some of them ahead of it.

What was measured:
activin A = target: T1, activin A (UniProt P08476 311-426); test: Biacore SPR
T1 sequence (looked up): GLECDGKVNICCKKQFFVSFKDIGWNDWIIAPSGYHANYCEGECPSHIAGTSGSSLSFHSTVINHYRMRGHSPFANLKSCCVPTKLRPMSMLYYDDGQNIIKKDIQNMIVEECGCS
Experimental: (§1) Ligands were injected and allowed to flow over the captured receptor protein.

activin B = target: T2, activin B (UniProt P09529 293-407); test: Biacore SPR
T2 sequence (looked up): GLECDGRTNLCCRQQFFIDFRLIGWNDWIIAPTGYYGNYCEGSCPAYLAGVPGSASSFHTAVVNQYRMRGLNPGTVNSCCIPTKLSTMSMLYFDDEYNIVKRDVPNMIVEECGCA
Experimental: as §1

BMP5 [1] = target: T3, BMP5 (UniProt P22003 317-454, limits assumed); test: Biacore SPR
T3 sequence (looked up): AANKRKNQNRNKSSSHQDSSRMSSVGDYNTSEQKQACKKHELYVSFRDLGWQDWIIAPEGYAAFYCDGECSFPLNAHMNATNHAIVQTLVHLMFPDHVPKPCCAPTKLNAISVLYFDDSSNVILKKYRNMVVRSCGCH
Experimental: as §1

BMP6 [2] = target: T4, BMP6 (UniProt P22004 382-513, limits assumed); test: Biacore SPR
T4 sequence (looked up): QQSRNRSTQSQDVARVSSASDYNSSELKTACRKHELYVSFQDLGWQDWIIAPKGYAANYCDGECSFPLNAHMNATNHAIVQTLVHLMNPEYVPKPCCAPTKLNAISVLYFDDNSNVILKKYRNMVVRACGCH
Experimental: as §1

BMP9 [3] = target: T5, BMP9 (UniProt Q9UK05 320-429); test: Biacore SPR
T5 construct: also called GDF2
T5 sequence (looked up): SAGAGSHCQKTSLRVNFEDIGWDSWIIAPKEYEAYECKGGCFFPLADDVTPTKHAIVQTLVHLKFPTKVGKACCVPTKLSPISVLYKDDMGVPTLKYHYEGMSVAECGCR
Experimental: as §1

BMP10 [4] = target: T6, BMP10 (UniProt O95393 317-424); test: Biacore SPR
T6 sequence (looked up): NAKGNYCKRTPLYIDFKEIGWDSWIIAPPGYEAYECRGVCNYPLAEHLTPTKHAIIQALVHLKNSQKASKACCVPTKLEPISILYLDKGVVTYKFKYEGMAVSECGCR
Experimental: as §1

GDF3 = target: T7, GDF3 (UniProt Q9NR23 251-364); test: Biacore SPR
T7 sequence (looked up): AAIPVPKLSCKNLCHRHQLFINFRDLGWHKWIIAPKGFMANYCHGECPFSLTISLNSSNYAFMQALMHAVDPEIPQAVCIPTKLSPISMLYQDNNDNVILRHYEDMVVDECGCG
Experimental: as §1

GDF8 = target: T8, GDF8 (UniProt O14793 267-375); test: Biacore SPR
T8 construct: also called myostatin
T8 sequence (looked up): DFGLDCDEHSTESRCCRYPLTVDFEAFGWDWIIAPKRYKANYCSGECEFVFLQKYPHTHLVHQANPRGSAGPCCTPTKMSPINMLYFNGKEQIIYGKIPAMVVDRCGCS
Experimental: as §1

GDF11 = target: T9, GDF11 (UniProt O95390 299-407); test: Biacore SPR
T9 construct: also called BMP11
T9 sequence (looked up): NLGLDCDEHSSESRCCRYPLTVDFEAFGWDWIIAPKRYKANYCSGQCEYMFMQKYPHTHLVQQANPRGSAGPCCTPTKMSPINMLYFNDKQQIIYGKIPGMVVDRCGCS
Experimental: as §1

BMP6 [5] = target: T4, BMP6; test: Biacore SPR; remark: listed apart in the source
BMP2 = BMP2 (UniProt P12643 283-396); test: Biacore SPR
Experimental: as §1

BMP4 = target: T10, BMP4 (UniProt P12644 293-408); test: Biacore SPR
T10 sequence (looked up): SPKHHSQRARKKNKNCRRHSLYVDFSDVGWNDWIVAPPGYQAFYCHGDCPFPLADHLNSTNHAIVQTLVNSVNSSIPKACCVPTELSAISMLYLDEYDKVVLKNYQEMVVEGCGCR
Experimental: as §1

BMP5 [6] = target: T3, BMP5; test: Biacore SPR; remark: listed apart in the source
Experimental: as §1

BMP6 [7] = target: T4, BMP6; test: Biacore SPR; remark: listed apart in the source
Experimental: as §1

BMP7 = target: T11, BMP7 (UniProt P18075 293-431); test: Biacore SPR
T11 sequence (looked up): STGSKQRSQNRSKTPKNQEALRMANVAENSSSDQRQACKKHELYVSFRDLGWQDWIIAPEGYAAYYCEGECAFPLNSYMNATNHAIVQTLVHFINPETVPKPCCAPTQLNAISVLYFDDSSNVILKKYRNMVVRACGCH
Experimental: as §1

BMP9 [8] = target: T5, BMP9; test: Biacore SPR; remark: listed apart in the source
Experimental: as §1

BMP10 [9] = target: T6, BMP10; test: Biacore SPR; remark: listed apart in the source
Experimental: as §1

BMP15 = target: T12, BMP15 (UniProt O95972 268-392); test: Biacore SPR
T12 construct: also called GDF9b
T12 sequence (looked up): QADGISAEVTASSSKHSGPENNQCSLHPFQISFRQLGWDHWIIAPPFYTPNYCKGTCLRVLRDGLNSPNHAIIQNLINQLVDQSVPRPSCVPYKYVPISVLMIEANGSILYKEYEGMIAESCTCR
Experimental: as §1

GDF6 = target: T13, GDF6 (UniProt Q6KF10 336-455, limits assumed); test: Biacore SPR
T13 construct: also called BMP13
T13 sequence (looked up): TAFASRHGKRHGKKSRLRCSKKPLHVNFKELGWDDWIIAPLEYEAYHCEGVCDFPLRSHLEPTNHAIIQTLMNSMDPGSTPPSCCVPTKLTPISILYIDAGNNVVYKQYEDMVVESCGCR
Experimental: as §1

TGFβ1 [10] = target: T14, TGFβ1 (human, UniProt P01137 279-390); test: Biacore SPR
T14 construct: Human (PeproTech) is stated for the A549 reporter assay; also called TGF-beta1
Experimental: (§2) A Biacore™-based binding assay was used to compare ligand binding selectivity of the TGFβRIISHORT-Fc:ALK1-Fc heterodimeric complex described above with that of TGFβRIISHORT-Fc and ALK1-Fc homodimeric complexes. […] Ligands were injected and allowed to flow over the captured receptor protein.

TGFβ1 [11] = target: T14, TGFβ1; test: Biacore SPR; remark: listed apart in the source
Experimental: (§3) The heteromeric or homomeric protein complexes were independently captured onto the system using an anti-Fc antibody. Ligands were injected and allowed to flow over the captured receptor protein.

TGFβ2 [12] = target: T15, TGFβ2 (human, UniProt P61812 303-414); test: Biacore SPR
T15 construct: Human (PeproTech) is stated for the A549 reporter assay; also called TGF-beta2
T15 sequence (looked up): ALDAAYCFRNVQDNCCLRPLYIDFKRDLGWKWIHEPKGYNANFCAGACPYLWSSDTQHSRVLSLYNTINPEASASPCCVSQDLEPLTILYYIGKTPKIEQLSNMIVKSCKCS
Experimental: as §3

TGFβ1 [13] = target: T14, TGFβ1; test: cell-based or functional assay
TGFβ2 [14] = target: T15, TGFβ2; test: cell-based or functional assay
TGFβ2 [15] = target: T15, TGFβ2; test: Biacore SPR; kinetics indeterminate (transient)
Experimental: as §2

BMP2, sequence (P12643 283-396 limits assumed): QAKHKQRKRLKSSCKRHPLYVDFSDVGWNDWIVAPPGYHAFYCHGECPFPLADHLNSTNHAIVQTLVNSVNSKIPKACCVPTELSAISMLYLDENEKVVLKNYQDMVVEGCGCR
T14 sequence (P01137 279-390 limits assumed): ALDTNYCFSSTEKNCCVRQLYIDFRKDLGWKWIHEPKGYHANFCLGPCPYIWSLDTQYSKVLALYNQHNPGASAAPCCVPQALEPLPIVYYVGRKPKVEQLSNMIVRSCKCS

- binding result (activin A): no binding
- binding result (activin B): no binding
- binding result (BMP5 [1]): no binding
- binding result (BMP6 [2]): no binding
- binding result (BMP9 [3]): no binding
- binding result (BMP10 [4]): no binding
- binding result (GDF3): no binding
- binding result (GDF8): no binding
- binding result (GDF11): no binding
B1: ALK7-Fc homodimer (Fc fusion, UniProt Q8NER5 22-113, looked up, not shown: a dimerising Fc or GST)
chain: LSPGLKCVCLLCDSSNFTCQTEGACWASVMLTNGKEQVIKSCVSLPELNAQVFCHSSNNVTKTECCFTDFCNNITLHLPTASPNAPKLGPME
notes: extracellular domain

- off-rate ratio against ALK3-Fc homodimer (BMP6 [5]): ~10 fold
- Kd (BMP2): 0.051 nM
- koff (BMP2): 0.00015 s⁻¹
- kon (BMP2): 2.9e+06 M⁻¹ s⁻¹
- Kd (BMP4): 0.1 nM
- koff (BMP4): 9.1e-05 s⁻¹
- kon (BMP4): 910000 M⁻¹ s⁻¹
- Kd (BMP5 [6]): 3.2 nM
- koff (BMP5 [6]): 0.0014 s⁻¹
- kon (BMP5 [6]): 430000 M⁻¹ s⁻¹
- Kd (BMP6 [7]): 1.6 nM
- koff (BMP6 [7]): 0.00059 s⁻¹
- kon (BMP6 [7]): 360000 M⁻¹ s⁻¹
- Kd (BMP7): 1 nM
- koff (BMP7): 0.012 s⁻¹
- kon (BMP7): 1.2e+07 M⁻¹ s⁻¹
- binding result (BMP9 [8]): no binding
- Kd (BMP10 [9]): 2.4 nM
- koff (BMP10 [9]): 0.0016 s⁻¹
- kon (BMP10 [9]): 680000 M⁻¹ s⁻¹
- Kd (BMP15): 6 nM
- koff (BMP15): 0.0055 s⁻¹
- kon (BMP15): 910000 M⁻¹ s⁻¹
- Kd (GDF6): 1.4 nM
- koff (GDF6): 0.0019 s⁻¹
- kon (GDF6): 1.4e+06 M⁻¹ s⁻¹
B2: BMPRII-Fc:ALK3-Fc heterodimer (Fc fusion)
chain 1: SQNQERLCAFKDPYQQDLGIGESRISHENGTILCSKGSTCYGLWEKSKGDINLVKQGCWSHIGDPQECHYEECVVTTTPPSIQNGTYRFCCCSTDLCNVNFTENFPPPDTTPLSPPHSFNRDETGGGTHTCPPCPAPELLGGPSVFLFPPKPKDTLMISRTPEVTCVVVDVSHEDPEVKFNWYVDGVEVHNAKTKPREEQYNSTYRVVSVLTVLHQDWLNGKEYKCKVSNKALPAPIEKTISKAKGQPREPQVYTLPPSRKEMTKNQVSLTCLVKGFYPSDIAVEWESNGQPENNYKTTPPVLKSDGSFFLYSKLTVDKSRWQQGNVFSCSVMHEALHNHYTQKSLSLSPGK
chain 2: GAQNLDSMLHGTGMKSDSDQKKSENGVTLAPEDTLPFLKCYCSGHCPDDAINNTCITNGHCFAIIEEDDQGETTLASGCMKYEGSDFQCKDSPKAQLRRTIECCRTNLCNQYLQPTLPPVVIGPFFDGSIRTGGGTHTCPPCPAPELLGGPSVFLFPPKPKDTLMISRTPEVTCVVVDVSHEDPEVKFNWYVDGVEVHNAKTKPREEQYNSTYRVVSVLTVLHQDWLNGKEYKCKVSNKALPAPIEKTISKAKGQPREPQVYTLPPSREEMTKNQVSLTCLVKGFYPSDIAVEWESNGQPENNYDTTPPVLDSDGSFFLYSDLTVDKSRWQQGNVFSCSVMHEALHNHYTQKSLSLSPG
notes: C-terminal Lys optional; also called BMPRII-Fc:ALK3 heterodimer

- Kd (TGFβ1 [10]): 0.025 nM
- Kd (TGFβ1 [11]): 0.02 nM
- Kd (TGFβ2 [12]): 11 nM
- IC50 (pM), CAGA12-luciferase reporter gene assay in A549 cells, TGFβ1 at 640 pg/mL (TGFβ1 [13]): 90 pM
- IC50 (pM), CAGA12-luciferase reporter gene assay in A549 cells, TGFβ2 at 480 pg/mL (TGFβ2 [14]): > 10000 pM
- Kd (TGFβ2 [15]): > 44 nM
B3: TGFβRIISHORT-Fc homodimer (Fc fusion)
chain: TIPPHVQKSVNNDMIVTDNNGAVKFPQLCKFCDVRFSTCDNQKSCMSNCSITSICEKPQEVCVAVWRKNDENITLETVCHDPKLPYHDFILEDAASPKCIMKEKKKPGETFFMCSCSSDECNDNIIFSEEYNTSNPD
